Here are results for two sequences from PMC4917244.

For data set [1], the target named is T1, Ros1WOPR-His (Ustilago maydis (FB1?)) (UniProt A0A0D1BVT7).
T1 sequence: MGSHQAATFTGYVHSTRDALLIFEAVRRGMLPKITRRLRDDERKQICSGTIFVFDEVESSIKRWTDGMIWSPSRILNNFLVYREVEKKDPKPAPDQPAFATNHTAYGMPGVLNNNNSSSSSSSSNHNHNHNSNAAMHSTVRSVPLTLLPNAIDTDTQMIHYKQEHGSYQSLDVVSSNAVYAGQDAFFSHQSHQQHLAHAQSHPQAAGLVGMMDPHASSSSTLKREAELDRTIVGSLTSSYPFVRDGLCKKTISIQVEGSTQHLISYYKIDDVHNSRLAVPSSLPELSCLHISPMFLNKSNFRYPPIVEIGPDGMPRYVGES
The data set can be described thus: EMSA. Background: A gel shift assay detects complexes by their altered migration in electrophoresis.

Data set [2] deals with T1, Ros1WOPR-His (Ustilago maydis (FB1?)). The data set can be described thus: competition EMSA.

On to “CGCCAGAGACAAGTACTGTTCCCAATTCGGAGCTTCGCCGTGAACCACGAATTCATGCATTTCCATATTGGCAAAATATTAAAAAATTGAGGGTTTTGGCGTTGGCCTTTTGAGAGTTTATTTTAGATTTAATTAAGTGATTATGAGGATGATTCTTTTTCTTCATCTTCCTGTAACCGTCACCTGCCACGCTTGCCTAGACGCAGCAGTATCCACTCCGTAGGCGTATGCTATTGT (double strand) [WT-probe (ros1 promoter)]”, for which the binding entry in data set [1] was “binds”. In the case of “CGCCAGAGACAAGTACTGTTCCCAATTCGGAGCTTCGCCGTGAACCACGAATTCATGCATTTCCATATTGGCAAAATATTAAAAAATTGAGGGTTTTGGCGTTGGCCTTTTGAGAGTTTATTTTAGATTTAATTAAGTGATTATGAGGATGATTCTTTTTCTTCATCTTCCTGTAACCGTCACCTGCCACGCTTGCCTAGACGCAGCAGTATCCACTCCGTAGGCGTATGCTATTGT (double strand) [WT-probe unlabeled competitor]”, in data set [2], the binding result was “binds”.
